Data as given in patent US20070111253A1 (MERCK, published 2007).

B1: rhDkk-1 comprising a polyhistidine sequence at the carboxy terminus, labeled with europium chelate N1-isothiocyanate (Eu-rhDkk-1) (ligand, not shown: small tags and cut ends)
chain: TLNSVLNSNAIKNLPPPLGGAAGHPGSAVSAAPGILYPGGNKYQTIDNYQPYPCAEDEECGTDEYCASPTRGGDAGVQICLACRKRRKRCMRHAMCCPGNYCKNGICVSSDQNNFRGEIEETITESFGNDHSTLDGYSRRTTLSSKMYHSKGQEGSVCLRSSDCATGLCCARHFWSKICKPVLKEGQVCTKHRRKGSHGLEIFQRCYCGEGLSCRIQKDHHQASNSSRLHTCQRH
modifications: labeled with europium chelate N1-isothiocyanate, about 9 Eu molecules per protein (sites not given)
notes: Produced in baculovirus-infected insect cells and purified on a nickel column; also called labeled RhDkk-1 protein; polyhistidine-tagged RhDkk-1
B2: rhesus monkey dickkopf-1 (rhDkk-1), unlabeled competitor (ligand)
chain: B1 chain

Columns and labels:
[1] = target: T1, human low-density lipoprotein receptor related protein 5 (LRP5) (human, UniProt O75197 32-1615); assay: cell binding to HEK 293 cells stably overexpressing human LRP5, time resolved fluorescence of europium label
T1 construct: whole, on cells; also called human LRP5
T1 sequence (O75197 32-1615): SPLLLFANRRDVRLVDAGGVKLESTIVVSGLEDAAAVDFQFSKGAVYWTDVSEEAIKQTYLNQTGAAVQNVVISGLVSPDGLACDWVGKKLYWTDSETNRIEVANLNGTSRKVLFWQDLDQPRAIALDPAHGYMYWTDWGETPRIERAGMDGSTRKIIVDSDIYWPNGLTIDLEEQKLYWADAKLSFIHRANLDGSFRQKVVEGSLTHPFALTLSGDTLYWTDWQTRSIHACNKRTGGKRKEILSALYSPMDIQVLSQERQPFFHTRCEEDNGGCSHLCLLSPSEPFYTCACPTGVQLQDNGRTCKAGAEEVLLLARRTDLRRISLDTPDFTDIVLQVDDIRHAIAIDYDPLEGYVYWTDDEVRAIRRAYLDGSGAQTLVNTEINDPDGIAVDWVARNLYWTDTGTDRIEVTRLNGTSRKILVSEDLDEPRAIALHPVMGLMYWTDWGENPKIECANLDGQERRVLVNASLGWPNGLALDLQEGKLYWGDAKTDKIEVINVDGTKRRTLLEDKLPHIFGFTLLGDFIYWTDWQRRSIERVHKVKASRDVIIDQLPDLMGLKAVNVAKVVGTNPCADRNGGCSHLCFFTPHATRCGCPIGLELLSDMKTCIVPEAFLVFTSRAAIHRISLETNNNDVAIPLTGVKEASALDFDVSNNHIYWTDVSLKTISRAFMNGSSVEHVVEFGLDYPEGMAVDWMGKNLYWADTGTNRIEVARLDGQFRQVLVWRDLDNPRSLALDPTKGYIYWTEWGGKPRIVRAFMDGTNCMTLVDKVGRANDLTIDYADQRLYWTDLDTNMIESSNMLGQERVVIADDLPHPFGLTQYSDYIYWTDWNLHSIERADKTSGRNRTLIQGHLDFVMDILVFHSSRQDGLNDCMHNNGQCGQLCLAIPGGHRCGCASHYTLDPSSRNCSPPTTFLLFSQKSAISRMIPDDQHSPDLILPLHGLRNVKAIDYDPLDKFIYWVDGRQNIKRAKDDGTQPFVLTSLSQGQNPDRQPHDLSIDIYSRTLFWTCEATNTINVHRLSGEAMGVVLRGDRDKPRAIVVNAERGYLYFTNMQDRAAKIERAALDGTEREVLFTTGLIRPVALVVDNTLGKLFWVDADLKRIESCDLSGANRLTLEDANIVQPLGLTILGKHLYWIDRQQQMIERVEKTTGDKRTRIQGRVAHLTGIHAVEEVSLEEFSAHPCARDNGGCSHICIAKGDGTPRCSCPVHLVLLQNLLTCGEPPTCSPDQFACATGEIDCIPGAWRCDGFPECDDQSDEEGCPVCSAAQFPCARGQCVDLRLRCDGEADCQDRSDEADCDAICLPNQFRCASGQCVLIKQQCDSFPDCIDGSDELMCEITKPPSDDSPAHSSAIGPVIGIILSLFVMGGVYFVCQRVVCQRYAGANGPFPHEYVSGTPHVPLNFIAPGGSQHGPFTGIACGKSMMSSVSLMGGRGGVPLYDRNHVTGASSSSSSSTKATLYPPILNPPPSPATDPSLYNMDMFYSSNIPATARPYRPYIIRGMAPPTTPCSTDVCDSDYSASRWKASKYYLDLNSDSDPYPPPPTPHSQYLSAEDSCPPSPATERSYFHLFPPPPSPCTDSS

[2] = target: T1, human low-density lipoprotein receptor …; assay: competition with Eu-rhDkk-1 for binding to human LRP5 on HEK 293 cells, time resolved fluorescence
Experimental: The rhDkk-1-LRP5 binding assays were carried out as follows. The recombinant HEK 293 cells stably overexpressing human LRP5 were plated into the wells of white/white, 384-well, PDL plates (BD Biosciences, San Jose, Calif.). Each well contained about 10,000 cells and 30 μL of medium containing 2.5% FBS. The next day, to each well, 250 nL of an analyte was added (high concentration copy, CyBi Disk) for final a concentration of about 30 μM. Next, 5 μL of Eu-rhDkk-1 (1 nM) was added to each of the wells (CyBi Well, 0.1 nM final concentration). After incubating at 37° C. for 30 minutes, the wells were washed four times each with a wash solution (Tris-buffered saline, pH 8.0) containing 0.02% Tween-20). After the final wash, 20 μL of Enhancement Solution (Perkin Elmer) was added to each of the wells. After incubating the wells in Enhancement Solution for 30 minutes at room temperature, the wells were vortexed and the time resolved fluorescence from the wells read using the […], a CCD-based optical imaging instrument that can measure fluorescence (Amersham Biosciences, Piscataway, N.J.).

[3] = target: T1, human low-density lipoprotein receptor …; assay: competition with rhDkk-1-GFP fusion protein for binding to LRP5 on HEK 293 cells, fluorescence imaging (INCell 3000)
Experimental: The rhDkk-1-GFP fusion protein-LRP5 binding assays were as follows. Recombinant HEK-293 cells stably overexpressing human LRP5 were plated into the wells of a 384-well tissue culture plate (Corning) at a concentration of about 6,000 cells/well. Each well contained 45 μL of phenol red-free DMEM containing 2.5% FBS. To each well, an analyte was added to give a final concentration of 15 μM. A minute later, 5 μL of conditioned medium containing rhDkk-1-GFP and 10 μM DRAQ5 nuclear stain is added to each well and the wells incubated at 37 °C for 25 minutes. Imaging and evaluation of rhDkk-1-GFP fusion protein binding to the recombinant cells overexpressing LRP5 was determined using an INCell 3000 imager (Amersham, Piscataway, N.J.).

Row | Binder | Kd [1] [nM] | IC50 [2] [nM] | IC50 [3] [nM]
1 | B1 | ~1 |  | 
2 | B2 |  | ~0.2 | ~1
